The text below walks through data of publication PMC9867979, “Pab1 acetylation at K131 decreases stress granule formation in Saccharomyces cerevisiae”.

The data set addresses Pab1 RRM1-RRM2 (Saccharomyces cerevisiae, UniProt P04147 38-203). The experiment in a line: EMSA; protein titration up to 5000 nM; EMSA: 1x binding buffer (from 5x: 50 mM Tris-HCl pH 7.5, 750 mM KCl, 0.5 mM EDTA, 0.5 mM DTT) = 10 mM Tris-HCl, 150 mM KCl, 0.1 mM EDTA, 0.1 mM DTT, plus protein buffer (20 mM Tris-HCl pH 7.4, 100 mM KOAc, 2 mM MgOAc, 10% glycerol); 20 ul, 30 C, 30 min; 10% native PAGE, 0.4x TBE, 4 C. As to conditions: protein: recombinant; tags: GST (pGEX-4T-1), removed with thrombin; label: Cy5 at both ends (as named); single strand.

Sequence of Pab1 RRM1-RRM2 (P04147 38-203): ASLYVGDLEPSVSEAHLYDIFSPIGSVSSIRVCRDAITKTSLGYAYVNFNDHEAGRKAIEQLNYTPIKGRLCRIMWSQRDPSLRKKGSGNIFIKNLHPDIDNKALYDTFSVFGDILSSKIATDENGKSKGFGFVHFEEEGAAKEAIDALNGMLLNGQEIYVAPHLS

In the case of AAAAAAAAAAAAAAAAAAAA (ssRNA) [Cy5-Poly(A)20-Cy5], the binding result was “binds”.
